Measurements taken from patent US20240238445A1, “INHIBITORS AND USES THEREOF” (NEURACLE SCIENCE CO., LTD., priority 2021, published 2024).

B1: LRRC4B (498-576): LRRC4B ectodomain fragment, amino acids 498-576 of SEQ ID NO: 2 (protein)
chain: QPGEEALQPRGTEKEPPGPTTDGVWGGGRPGDAAGPASSSTTAPAPRSSRPTEKAFTVPITDVTENALKDLDDVMKTTK
B2: LRRC4B (453-576): LRRC4B ectodomain fragment, amino acids 453-576 of SEQ ID NO: 2; FLAG-tagged or hFc-fused (protein)
chain: VSAVDPVAAGGTGSGGGGPGGSGGVGGGSGGYTYFTTVTVETLETQPGEEALQPRGTEKEPPGPTTDGVWGGGRPGDAAGPASSSTTAPAPRSSRPTEKAFTVPITDVTENALKDLDDVMKTTK
modifications: FLAG tag or human Fc
notes: FLAG-tagged or hFc-fused

Molecular target: binding of FAM19A5 protein to full-length ectodomain of the LRRC4B protein (amino acids 36-576 of SEQ ID NO: 2) (Homo sapiens, UniProt Q7Z5A7)
Sequence (Q7Z5A7 44-132): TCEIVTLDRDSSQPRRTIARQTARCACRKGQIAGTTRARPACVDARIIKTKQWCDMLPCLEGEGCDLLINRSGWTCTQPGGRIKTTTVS
Test: Competitive inhibition assay, plate coated with full-length ectodomain of LRRC4B (amino acids 36-576)
Conditions: for inhibition of FAM19A5 binding to coated full-length LRRC4B ectodomain protein (in words): increasing concentrations, FAM19A5 5 ng/mL, 100 nM coat
In short: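 Wells are coated with 100 nM LRRC4B ectodomain (aa 36-576), and 5 ng/mL recombinant FAM19A5 is added with competitor: LRRC4B deletion constructs at increasing concentrations, or synthetic peptides at 20 nM. After incubation at 37 °C, bound FAM19A5 is detected with HRP-conjugated anti-FAM19A5 (1-65) antibody.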

Molecule | inhibition of interaction between FAM19A5 and the coated LRRC4B protein fragments (in words) (20 nM peptide, statement covers both coats, LRRC4B (36-576) and LRRC4B (453-576)) | Inhibition rate (%) LRRC4B (amino acids 36-576)-hFc (Table 8, 20 nM peptide, FAM19A5 5 ng/ml) [%] | Inhibition rate (%) LRRC4B (amino acids 36-576)-hFc (Table 9, deletion variants, 20 nM peptide, FAM19A5 5 ng/ml) [%] | Inhibition rate (%) LRRC4B (amino acids 36-576)-hFc (Table 10, alanine/asparagine mutants) [%] | inhibition of FAM19A5 binding to coated full-length LRRC4B ectodomain protein (in words)
GYTYFTTVTVETLETQPGEE [FB-20] | significantly decreased the interaction | 77.0 | 84.3 | 77.0 | –
B1 | – | – | – | – | much inferior in their ability to inhibit the interaction
B2 | – | – | – | – | able to inhibit FAM19A5 protein from binding
